From patent US20250043302A1, “MUTATED HYDROXYPHENYLPYRUVATE DIOXYGENASE POLYPEPTIDE, AND CODING GENE AND USE THEREOF” (BEIJING DABEINONG BIOTECHNOLOGY CO., LTD., priority 2021, published 2025)

Assays:
Assay type in all cases: in vivo
[1] = test system: Arabidopsis thaliana T1 plants; test: Isoxaflutole tolerance of transgenic Arabidopsis thaliana T1 plants (spray, bleached leaf area grade, damage score); conditions: Table 11; for Classification and statistics of the grade of pesticide damage Grade 0: number of plants at grade 0; for Classification and statistics of the grade of pesticide damage Grade 1: number of plants at grade 1; for Classification and statistics of the grade of pesticide damage Grade 2: number of plants at grade 2; for Classification and statistics of the grade of pesticide damage Grade 3: number of plants at grade 3; for Scores: pesticide damage score;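 for Scores: Weighted damage index from 0 to 100 where higher means more damage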
Summary of the method: (§1)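 Damage was assessed by bleaching grade (0 none; 1 <50%; 2 >50%; 3 100% of leaf area) one week after spraying. Sprays on 18-day-old T1 and wild-type plants used field-rate multiples: topramezone 25–200, isoxaflutole 35–280, mesotrione 52.5–420 g ai/ha.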

[2] = test system: Arabidopsis thaliana T1 plants; test: Topramezone tolerance of transgenic Arabidopsis thaliana T1 plants (spray, bleached leaf area grade, damage score); conditions: Table 10; for Classification and statistics of the grade of pesticide damage Grade 0: number of plants at grade 0; for Classification and statistics of the grade of pesticide damage Grade 1: number of plants at grade 1; for Classification and statistics of the grade of pesticide damage Grade 2: number of plants at grade 2; for Classification and statistics of the grade of pesticide damage Grade 3: number of plants at grade 3; for Scores: pesticide damage score
Summary of the method: as §1

[3] = test system: Arabidopsis thaliana T1 plants; test: Mesotrione tolerance of transgenic Arabidopsis thaliana T1 plants (spray, bleached leaf area grade, damage score); design: Scores: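 damage score 0-100 computed as Σ(N×S)/(T×M)×100 over grades 0-3 with higher meaning more damage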; conditions: Table 12; for Classification and statistics of the grade of pesticide damage Grade 0: number of plants at grade 0; for Classification and statistics of the grade of pesticide damage Grade 1: number of plants at grade 1; for Classification and statistics of the grade of pesticide damage Grade 2: number of plants at grade 2; for Classification and statistics of the grade of pesticide damage Grade 3: number of plants at grade 3; for Scores: pesticide damage score
Summary of the method: as §1

B1: HPPDm-3-02: nucleotide sequence encoding Avena sativa HPPD with A106G+F372A+F383W; vector DBN11784 (nucleic acid)
DNA: ATGCCACCTACTCCAGCTACAGCTACTGGTGCTGCTGCTGCTGCCGTTACTCCTGAGCACGCTGCCAGGTCATTCCCCAGGGTGGTTCGCGTGAACCCCAGATCTGATAGGTTCCCAGTTCTGAGCTTCCACCATGTTGAGCTGTGGTGCGCTGATGCTGCTTCTGCTGCTGGCAGGTTCTCTTTCGCTCTTGGTGCTCCACTCGCTGCTAGATCTGATCTGTCTACAGGAAATAGCGCTCATGCCTCACTCCTGCTTCGCTCAGGTGCTTTGGCCTTCCTCTTCACCGCTCCATATGCTCCCCCACCTCAGGAGGGTGCTACTGCTGCTGCTACAGCCTCCATTCCAAGCTTCTCAGCTGATGCCGCTAGAACCTTCGCTGCTGCTCATGGACTTGCCGTGAGGTCTGTTGGTGTTCGCGTGGCTGATGCTGCTGAGGCTTTCAGAGTTTCCGTTGCCGGCGGAGCTAGGCCAGCTTTCGCTCCTGCTGATTTGGGACATGGTTTCGGCCTGGCTGAGGTTGAGCTTTACGGTGACGTGGTTCTCCGCTTCGTGTCTTACCCAGATGAGACTGACCTGCCTTTCCTTCCCGGCTTCGAGAGAGTTTCCTCTCCTGGTGCCGTGGATTACGGCCTGACAAGGTTCGACCACGTGGTTGGAAACGTTCCCGAGATGGCTCCAGTGATCGATTACATGAAGGGCTTCCTTGGATTCCATGAGTTCGCCGAGTTCACTGCTGAGGACGTGGGAACCACTGAGTCCGGTTTGAACTCTGTGGTTCTCGCCAACAATTCTGAGGCTGTTTTGCTCCCTCTGAATGAGCCTGTGCATGGAACCAAGAGGAGAAGCCAGATTCAAACTTACCTGGAGTACCACGGTGGCCCTGGAGTTCAGCATATCGCCCTTGCTTCTAATGATGTGTTGCGCACACTCAGAGAGATGCGCGCCAGAACCCCCATGGGAGGTTTCGAGTTCATGGCCCCACCACAGGCTAAGTACTACGAGGGCGTTAGAAGGATTGCTGGAGACGTGTTGAGCGAGGAGCAGATCAAGGAGTGCCAAGAGCTGGGTGTTCTTGTGGATAGGGATGACCAGGGCGTTCTGCTTCAAATTGCCACTAAGCCAGTGGGCGACCGCCCTACATTCTGGCTTGAGATGATTCAAAGAATCGGCTGCATGGAGAAGGATGAGGTTGGACAGGAGTACCAAAAGGGCGGATGCGGTGGCTTCGGAAAGGGTAACTTCAGCGAGTTGTTCAAGTCAATCGAGGACTACGAGAAGAGCCTCGAGGTGAAGCAGTCAGTGGTTGCCCAAAAGTCCTGA
modifications: HPPDm-3-02 Nucleotide Sequence
notes: vector DBN11784
[1]; isoxaflutole 140 g ai/ha (2×)
  Resistance evaluation: Highly resistant
  Classification and statistics of the grade of pesticide damage Grade 0: 16
  Classification and statistics of the grade of pesticide damage Grade 1: 0
  Classification and statistics of the grade of pesticide damage Grade 2: 0
  Classification and statistics of the grade of pesticide damage Grade 3: 0
  Scores: 0
[1]; isoxaflutole 280 g ai/ha (4×)
  Resistance evaluation: Highly resistant
  Classification and statistics of the grade of pesticide damage Grade 0: 12
  Classification and statistics of the grade of pesticide damage Grade 1: 4
  Classification and statistics of the grade of pesticide damage Grade 2: 0
  Classification and statistics of the grade of pesticide damage Grade 3: 0
  Scores: 8
[2]; topramezone 100 g ai/ha (4×)
  Resistance evaluation: Highly resistant
  Classification and statistics of the grade of pesticide damage Grade 0: 16
  Classification and statistics of the grade of pesticide damage Grade 1: 0
  Classification and statistics of the grade of pesticide damage Grade 2: 0
  Classification and statistics of the grade of pesticide damage Grade 3: 0
  Scores: 0
[2]; topramezone 200 g ai/ha (8×)
  Resistance evaluation: Highly resistant
  Classification and statistics of the grade of pesticide damage Grade 0: 16
  Classification and statistics of the grade of pesticide damage Grade 1: 0
  Classification and statistics of the grade of pesticide damage Grade 2: 0
  Classification and statistics of the grade of pesticide damage Grade 3: 0
  Scores: 0
[3]; mesotrione 210 g ai/ha (2×)
  Resistance evaluation: Highly resistant
  Classification and statistics of the grade of pesticide damage Grade 0: 16
  Classification and statistics of the grade of pesticide damage Grade 1: 0
  Classification and statistics of the grade of pesticide damage Grade 2: 0
  Classification and statistics of the grade of pesticide damage Grade 3: 0
  Scores: 0
[3]; mesotrione 420 g ai/ha (4×)
  Resistance evaluation: Highly resistant
  Classification and statistics of the grade of pesticide damage Grade 0: 14
  Classification and statistics of the grade of pesticide damage Grade 1: 2
  Classification and statistics of the grade of pesticide damage Grade 2: 0
  Classification and statistics of the grade of pesticide damage Grade 3: 0
  Scores: 4
